{"source": "patent US20150104466A1", "about": "(WISCONSIN ALUMNI RESEARCH FOUNDATION, published 2015)", "key": {"β3 integrin": {"molecular_target": "T1, β3 integrin (human, UniProt P05106 27-788)", "T1 construct": "also called β3 integrins", "T1 sequence (P05106 27-788 limits assumed)": "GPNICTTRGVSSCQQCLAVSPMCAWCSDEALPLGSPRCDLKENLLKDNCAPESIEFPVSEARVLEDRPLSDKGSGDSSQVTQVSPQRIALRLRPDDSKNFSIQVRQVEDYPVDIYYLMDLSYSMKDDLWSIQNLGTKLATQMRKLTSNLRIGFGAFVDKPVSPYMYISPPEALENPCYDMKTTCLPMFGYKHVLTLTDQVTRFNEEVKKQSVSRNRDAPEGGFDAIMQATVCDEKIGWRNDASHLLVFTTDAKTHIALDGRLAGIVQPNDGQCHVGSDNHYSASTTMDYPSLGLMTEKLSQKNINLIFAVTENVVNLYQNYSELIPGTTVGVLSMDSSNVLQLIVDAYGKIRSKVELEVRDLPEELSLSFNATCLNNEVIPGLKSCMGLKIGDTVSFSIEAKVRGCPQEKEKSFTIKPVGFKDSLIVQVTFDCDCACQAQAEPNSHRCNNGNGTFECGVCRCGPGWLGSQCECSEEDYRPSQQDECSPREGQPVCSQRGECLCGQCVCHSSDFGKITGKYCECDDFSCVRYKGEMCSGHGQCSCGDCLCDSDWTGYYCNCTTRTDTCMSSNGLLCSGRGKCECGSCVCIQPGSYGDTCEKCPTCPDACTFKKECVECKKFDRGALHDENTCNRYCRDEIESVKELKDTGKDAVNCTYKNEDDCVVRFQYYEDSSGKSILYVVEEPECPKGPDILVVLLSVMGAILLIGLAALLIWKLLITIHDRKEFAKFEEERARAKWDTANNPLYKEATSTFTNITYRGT", "experiment": "His-tag pull-down on nickel beads from NHDF lysate, Western blot for β3 integrin"}, "β1 integrin": {"molecular_target": "β1 integrin (human, UniProt P05556 21-798)", "sequence (P05556 21-798)": "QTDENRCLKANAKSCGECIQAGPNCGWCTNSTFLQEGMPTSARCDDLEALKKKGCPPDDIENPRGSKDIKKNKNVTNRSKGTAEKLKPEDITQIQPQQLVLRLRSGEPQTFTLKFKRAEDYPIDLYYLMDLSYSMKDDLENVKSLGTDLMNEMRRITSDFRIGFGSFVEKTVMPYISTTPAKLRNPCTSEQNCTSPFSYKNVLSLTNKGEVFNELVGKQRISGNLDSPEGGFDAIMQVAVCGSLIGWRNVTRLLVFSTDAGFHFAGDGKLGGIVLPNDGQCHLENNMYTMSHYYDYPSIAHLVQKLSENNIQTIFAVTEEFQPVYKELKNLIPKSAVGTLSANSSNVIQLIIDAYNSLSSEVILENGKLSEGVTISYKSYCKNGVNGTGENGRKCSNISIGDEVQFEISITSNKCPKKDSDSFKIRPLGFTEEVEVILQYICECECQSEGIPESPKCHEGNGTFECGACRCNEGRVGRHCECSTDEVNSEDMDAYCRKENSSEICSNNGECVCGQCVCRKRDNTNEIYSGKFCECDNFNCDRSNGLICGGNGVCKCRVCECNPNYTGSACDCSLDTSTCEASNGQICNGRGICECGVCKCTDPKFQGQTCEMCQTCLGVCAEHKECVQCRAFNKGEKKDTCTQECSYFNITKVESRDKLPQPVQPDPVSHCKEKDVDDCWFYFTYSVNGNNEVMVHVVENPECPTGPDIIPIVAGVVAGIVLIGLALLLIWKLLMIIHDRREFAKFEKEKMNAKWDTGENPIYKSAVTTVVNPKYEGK", "experiment": "cell-based or functional assay"}}, "note": "Where “and” joins values, the source holds several entries; their conditions need not be identical. Equal entries are not always repeated."}
{"binder": "HCMV AD169 glycoprotein B disintegrin-like domain (amino acids 57-146), His-tagged, expressed in E. coli (other, range 57-146; also called gBDLD; gBDLD fragment; not shown: N-terminal His-Tag with thrombin cleavage site from vector pET-28a) VTSSEAVSHRANETIYNTTLKYGDVVGVNTTKYPYRVCSMAQGTDLIRFERNIICTSMKPINEDLDEGIMVVYKRNIVAHTFKVRVYQKV", "values": [{"measurement": "binding result", "setting": "β3 integrin", "value": "no binding (tested: 20 µg gBDLD in 350 µL cell lysate)"}, {"measurement": "IC50 for HCMV neutralization (HCMV-GFP infectivity of NHDFs, flow cytometry)", "setting": "β1 integrin", "value": "20.5 µg/mL and 1.96 µM"}]}
